T1: mouse TLR2 on bone marrow-derived macrophages (BMDMs), Q9QUN7
T1 chain: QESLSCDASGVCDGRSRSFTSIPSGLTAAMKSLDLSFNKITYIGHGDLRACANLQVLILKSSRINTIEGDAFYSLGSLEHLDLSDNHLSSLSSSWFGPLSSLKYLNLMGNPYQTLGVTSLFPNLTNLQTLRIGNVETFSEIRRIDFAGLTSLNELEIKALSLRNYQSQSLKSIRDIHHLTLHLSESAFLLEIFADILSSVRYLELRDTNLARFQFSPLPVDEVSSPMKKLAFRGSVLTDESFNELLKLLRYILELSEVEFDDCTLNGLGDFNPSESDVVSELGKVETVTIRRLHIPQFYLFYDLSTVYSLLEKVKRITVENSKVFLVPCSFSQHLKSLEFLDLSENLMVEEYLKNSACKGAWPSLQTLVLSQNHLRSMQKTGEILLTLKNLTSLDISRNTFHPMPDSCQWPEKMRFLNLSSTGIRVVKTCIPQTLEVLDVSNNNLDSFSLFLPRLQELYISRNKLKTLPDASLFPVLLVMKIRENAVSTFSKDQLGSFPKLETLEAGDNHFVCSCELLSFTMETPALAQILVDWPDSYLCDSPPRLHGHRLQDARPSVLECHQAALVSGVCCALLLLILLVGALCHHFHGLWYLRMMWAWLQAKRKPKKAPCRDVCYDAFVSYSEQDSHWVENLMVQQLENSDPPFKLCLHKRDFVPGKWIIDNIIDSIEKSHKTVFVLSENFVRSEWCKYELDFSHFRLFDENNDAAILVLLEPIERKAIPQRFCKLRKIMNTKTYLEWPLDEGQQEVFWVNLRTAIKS


How the values were obtained:
[1] = system: mouse bone marrow-derived macrophages (BMDMs); assay: ELISA of immune cytokine secretion in BMDMs under normal conditions; type: cell-based; conditions: normal (non-inflammatory) conditions, 24 h
Method: Specifically, mouse bone marrow-derived macrophages (BMDMs) as mouse-derived immune cells were extracted from the mouse thighbone and shinbone, and then cultured in DMEM containing 10% fetal bovine serum (FBS) and antibiotics. Human macrophages (THP1) as human-derived immune cells were cultured in RPMI media containing 10% FBS and antibiotics.
The cultured cells were treated with AmTARS at 0.1 μM, 0.2 μM, and 0.5 μM for 24 h to obtain cell cultures. For cell removal, the media were centrifuged at 500×g for 10 min to obtain supernatants, which were then analyzed using an ELISA set (mouse interleukin (IL)-6, mouse IL-10, mouse tumor necrosis factor (TNF)-α, human IL-6, human IL-10, human TNF-α; BD Biosciences) to investigate the secretion of mouse- and human-derived immune cytokines. […]

BMDMs from TLR2-KO mouse = assay: IL-10 production in BMDMs from TLR2 knock-out mice; type: cell-based
From the text: The TLR2-dependent immune function of AmTARS was further corroborated using TLR2 knock-out (KO) mice. […] However, IL-10 production by […] (U1/U2) was abolished in BMDMs from TLR2-KO mice, providing further evidence that AmTARS regulates host immune cells via its unique regions in a TLR2-dependent manner (FIG. 28D).

[2] = biological target: T1, mouse TLR2 on bone marrow-derived …
TLR4-FLAG = biological target: T2, TLR4-FLAG (UniProt O00206 24-839, limits assumed); assay: Strep pull-down from HEK 293T cells co-expressing Strep-AmTARS and TLR4-FLAG, immunoblot
T2 construct: not shown: FLAG tag
T2 sequence (O00206 24-839 limits assumed): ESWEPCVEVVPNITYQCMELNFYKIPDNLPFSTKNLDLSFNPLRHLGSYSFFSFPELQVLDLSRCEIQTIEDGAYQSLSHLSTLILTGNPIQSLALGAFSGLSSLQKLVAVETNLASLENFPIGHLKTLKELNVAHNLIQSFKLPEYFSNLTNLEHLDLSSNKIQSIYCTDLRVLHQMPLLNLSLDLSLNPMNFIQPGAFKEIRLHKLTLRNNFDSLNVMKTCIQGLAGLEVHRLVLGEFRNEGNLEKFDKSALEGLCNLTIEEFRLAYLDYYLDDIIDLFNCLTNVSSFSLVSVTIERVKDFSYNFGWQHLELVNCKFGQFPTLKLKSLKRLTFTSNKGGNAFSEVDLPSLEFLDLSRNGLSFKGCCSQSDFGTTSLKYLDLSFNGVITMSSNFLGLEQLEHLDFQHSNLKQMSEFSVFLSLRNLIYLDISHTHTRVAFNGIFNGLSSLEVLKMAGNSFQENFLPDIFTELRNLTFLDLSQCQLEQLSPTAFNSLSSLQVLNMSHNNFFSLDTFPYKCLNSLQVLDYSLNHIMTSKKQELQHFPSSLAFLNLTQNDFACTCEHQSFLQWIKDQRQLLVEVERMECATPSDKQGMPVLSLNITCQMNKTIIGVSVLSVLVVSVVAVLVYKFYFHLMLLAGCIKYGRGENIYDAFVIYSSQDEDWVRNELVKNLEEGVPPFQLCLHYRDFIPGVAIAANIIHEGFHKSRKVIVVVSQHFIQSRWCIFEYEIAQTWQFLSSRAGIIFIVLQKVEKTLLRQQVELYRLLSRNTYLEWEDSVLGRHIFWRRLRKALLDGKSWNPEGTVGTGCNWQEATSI

| Molecule | secretion/production of IL-10 [1] | IL-10 production (BMDMs from TLR2-KO mouse) | activation of PI3K and AKT, and phosphorylation of GSK3β at Ser9 (western blot) in BMDMs [2] | binding result (TLR4-FLAG) |
| --- | --- | --- | --- | --- |
| EcTARS (U1/U2): Engineered EcTARS incorporating the AmTARS U1 and U2 regions, SEQ ID NO: 18 (protein, EcTARS(U1/U2)) MPVITLPDGSQRHYDHAVSPMDVALDIGPGLAKACIAGRVNGELVDACDLIENDAQLSIITAKDEEGLEIIRHSCAHLLGHAIKQLWPHTKMAIGPVIDNGFYYDVDLDRTLTQEDVEALEKRMHELAEKNYDVIKKKVSWHEARETFANRGAESGELGALGPRSEPESYKVSILDENIAHDDKPGLYFHEEYVDMCRGPHVPNMRFCHHFKLMKTAGAYWRGDSNNKMLQRIYGTAWADKKALNAYLQRLEEAAKRDHRKIGKQLDLYHMQEEAPGMVFWHNDGWTIFRELEVFVRSKLKEYQYQEVKGPFMMDRVLWEKTGHWDNYKDAMFTTSSEKLSQEGASCAELFNGLATGTIEGNREYCIKPMNCPGHVQIFNQGLKSYRDLPLRMAEFGSCHRNEPSGSLHGLMRVRGFTQDDAHIFCTEEQIRDEVNGCIRLVYDMYSTFGFEKIVVKLSTRPEKRIGSDEMWDRAEADLAVALEENNIPFEYQLGEGAFYGPKIEFTLYDCLDRAWQCGTVQLDFSLPSRLSASYVGEDNERKVPVMIHRAILGSMERFIGILTEEFAGFFPTWLAPVQVVIMNITDSQSEYVNELTQKLSNAGIRVKADLRNEKIGFKIREHTLRRVPYMLVCGDKEVESGKVAVRTRRGKDLGSMDVNEVIEKLQQEIRSRSLKQLEE | conferred the ability to trigger IL-10 production | abolished | – | – |
| Strep-tagged Akkermansia muciniphila threonyl-tRNA synthetase (Strep-AmTARS) (enzyme, The tag is put N-terminal from the name 'Strep-AmTARS'; not shown: 2 x Strep tag from vector pEXPR-IBA105) MSEHKERKTLEERQQMSDLERLRHSCAHVLATAICRLWPDAQLAGGPAVDNGFYYDVELDHRISTEDFERIEEEMKKVVKENQVFQKEVISRADAMKMAESGELGALGPRSEPSRFKIDLLNDIPEDEEISLYRNGDFTDLCAGPHVGRTGNCKAFKIMSVASAFYKGDKNRPMLQRIYGTCFPNRTQLDEHLERLEEARRRDHRKLGRELGLFCIDESVGQGLILWKPKGALIRRSLQDFITEELDKLGYSQVYTPNIGKLDLYRTSGHFPYYQESQYAPIPERDAMEKLSQEGASCAELFNGLATGTIEGYMLKPMNCPHHIKIYANDAHSYRDLPVRLAEFGTVYRWEQSGELGGMTRVRGFTQDDAHIFCTPDQLAGEIRQCLGIVKTIFGTLGMTDYRVRLSMRDPESDKYVGSPENWDKAEQALREAAEWLGADYSEEAGEAAFYGPKIDFIVRDAIGREWQLGTVQVDYNLPERFDLHYTGADNKPHRPVMVHRAPFGSMERFTGLLIEHFEGKFPTWLSPEQVRVLPISDKVTDVAAAHRTALAARGVRVTVDETPDKIGAKIRNARLDRVPYMLVLGQREAEDGTVSVRHRDKGDLGAMPFEQFADLVAREIAERHISPVI | – | – | AmTARS activated PI3K and AKT, and subsequently inhibited GSK3β activity via AKT-mediated phosphorylation at Ser9, in BMDMs | no binding |

— patent US12636342B2, “TARS derived from Akkermansia muciniphila or fragment thereof, and use thereof” (KOREA RESEARCH INSTITUTE OF BIOSCIENCE AND BIOTECHNOLOGY, priority 2020, dated 2026)
